From US20230226096A1 (Orna Therapeutics, Inc., priority 2020, published 2023)

B1: GFTV (nucleic acid)
DNA: ATGGGGAAGGGTATGACGTGCCCCTTCCTTCTTCGGAGAACTCGCTCTAGTGGTCTTTCCACTTCTGGAAAAGAGTGAGTGCACGTGATCAGGACCGTCGAAGACGACAAATACCTGGTGCTCTATCTCATAGACGTTTCACAGCTGTAGCGACCCCTCAGTAGCAGCGGAAGCCCCCTCCTGGTGACAGGAGCCTCTGCGGCCAAAAGCCACGTGGATAAGATCCACTGCTGAGGGCGGTGCGACCCTAGCACCCTGTGATGCATACTAGTTGTAGCGTGCCGGACTATTGGTCTGTCATAAGACACCTGATAGAGAGACCAAGAATGTCCTGGAGGTACCCCGCGTGCGGGATCTGACCAGGAGACCATTGCCCAATGCTTTACAACGGGTCTATGGTTTAAAAACTGTCGCAGTCTCTCCAAACCAAGTGGTCTTGGTTTTCAATTACTTTGAATATTTCACT
B2: BRBV-1 (nucleic acid)
DNA: CCCCCCCTACTTAAAGATGTACGGTTTTGCTGCTTTCACAGAGTAAAGCAGATAGAGGTTCTGAACTGGCAAACTTTACCTCGAAACACGCCCGTTTTTCTGCTGTGTCTCACAGACTGTCCTGTCACACTTGTGGCGGCTTGTGACACTGTGAACATAGTGAGACCGACCAAGACAACAGTTTCAAGTGATGAACATCGAACGTCTAAACTGGATCCGTAACTGGACATGTTAGGGCAAGGACTTCCCCCCTGGTAACAGGAGCCTGGCTGGCCAAAAGCCCCGCTCATTGAGCCTAGCATGTTGTCGACCCTGGACTGTTCAGTTTAGTTAGTACATGGAATTCACTTGTCACGGTTCTTCTGAACTCGGTCTCTAGTATGACAGCCTAAGGATGCCCTCCAGGTACCCCGGGGTAACAAGTGACACCCGGGATCTGAGGAGGGGACTACTTTACGTAGTTTAAAAAACGTCTAAGCTGTTATGGTGACCAGAGGCTGGCACCTTTCACTTTTAAAATTACACTACTGACTACAATTGAAGTGATAACGGTTTTACAGGCTTTCAAACTAGTTACACAAGCACTGTTTTCCTGACACACACACTTT
modifications: Bovine rhinitis B virus
B3: Mobovirus A (nucleic acid)
DNA: TATTCTCCCACAAACCTTCTTGTAACTCTGTTAAGCCTTTTACATCCATGTAATTTAATTTTCTCCACCTAAAAGGATTTCCCCCATGGTCCTTTTTGGCTCGAACAAATGCTACATAGGGTCTTGTTTTCTCCCCCTGGCTCTCTTGCCAGGGTTCCATACCCCAATTCCTCTATTTCCATGATTTTTCATCATGGTTTATTTTTACTGTCTTCTTATTTTCTGAGGTGACCAACTCCTAAGCCGACTGGGTCGCGGAAGCCCGGACTCCTCGCATCACTAGGGTGCGTAGCGATGTAGGCGAAAATATTGGTTGCTAGATGCATACATATAGTGAATTGATACTACACCAAACTCTGTTCTTTTTGAAACTAGCTATTTTCTAAGTAAGGTAGGCTACGGGTGAAACCTTACCATTGCAGGTACGTGAACCGCAACGGACATTTGGCCGAAGACTGGTGTACCCACGTCAGTTATAGGACCTCTTCAACGTTGGTGGACGGCATGTCACTGATTAGTTAGGCTAGTGAATTTAAGTTCAGGGGGTATCTTTTAGCTTAAGCGTGTATTCTAGTAGGACTTGCAGAGCCTCCCCACCTAGGAGGATCTCTGTTTATAGCCCCTTTTCCTTGTTCCGTTAGTTTTCCACACTTTTACAATATTTGATGATTTGTT
B4: Hunnivirus A2 (nucleic acid, listed as Hunnivirus sp.)
DNA: ACAGTTTTTGACAAGGACCCTCACCTGTCAATCGGGACCACCACTTTCAGTGACCCCGTGCGAAGTGTTGAGAGAAAGTGAGCTTTCTTACCCTTCATTTGTGAACCCTTCAGTCGAAGCCGCTTGGAATAAGATGGAAGGAAATGTTCATTCTAAATGGAGTGAAACATATACTTAATTTCCAGTGTTTAGTGGTCTTTCCACTAGACAACGGCACTGTCTTGCCGGAACTCTACACACCAACATTCCACGCTTGTGGGACTCAAATGTTGGATGACACAGTTGTAGCTGGAACTGAGTGTTTAGTGCACTCTGTGTAACAGTGAAAACAATGTGATCACTTCGGTGGGCTAGTAGCCTGTGGACTAACAACTGGTAACAGTTGCCTCAGGGGCCAAAAGCCACGGTGTTAACAGCACCCTACTAGTTTGATTGGAGCAATCCATGATGTTACAGAGTTAGTAACTGCCAAACAGATTGTACTGGTATCTTGGCATACCGTGCAACTTAGGATAGTGAAGGATGCCCTGGCGGTACCCATAGGTAACAAGTGACACTATGGATCTAAACAGGGGCTCACTCTACGTTGCTTTACAACTAGCTGTGAGTTAAAAAACGTCTAACTATCCACAACCTAGGGGACTAGGTTTTCCTTTTTATTTTTATACACAACTA
B5: Ia Io (nucleic acid)
DNA: GGTGTCCGGGTGTGTGGGATAGACCCAGATGTGCAGTGGATGCGAGCATTTGAGTCAGAGTAGGAGCAAGCCCAGGGGCAAAGGGACCACATTGTGTATCCCGAATGAAGGATCGAGATTTCTCTCCTCATTACCCGGTGTCTTGTCACTGTTGGGGGGGCCCAACAGTCTTAGTCCTATACTGCCTGATAGGGTCGCGGCTGGCCGGACTCAAGTGCTATAGTCAGTTGATTTTCACTC
B6: BRAV-2 (nucleic acid)
DNA: TTTGTTTTGCGGCTTTGCCGTTGTTCGGGTTTTACCTGTTTTCACACAGCAAAACAGGCCTTCTAGTTTCGTGCTTAAACGAGATCATGCTCGAACTAGAACTACATAGCTGGTCACTGGACTCATACCACACCTTGTGGAGCTTTATGGGAAAGGTGGCTAGTGGGCTGTGGAAGTGACTCTGACCACATGCCTCTCAAGTGTGGGAAATCACGGATCGGTGTAGCGACGACAACAGGCCTTGGGACACCCTCTCCAGTAATGGAGACCCAAGGGGCCAAAAGCCACGCCTCGTGCCCTGTTGTTCACAACCCCAGTGCGACCCGTGTTAGTACCTATTTGCGAGAACTGTGTCTGGACAGCTAAACACAACCCTAGTGGGAGACTAAGGATGCCCAGGAGGTACCCGGAGGTAACAAGTGACACTCTGGATCTGACCTGGGGAGAGAGGGCTTGCTTTACAGGCGCCTCTCTTTAAAAAGCTTCTATGTCTCATCAGGCACCGGAGGCCGGGCCTTTTCCTTTTAAAATTACACTTA
modifications: Bovine rhinitis A virus
B7: Burpengary Virus (nucleic acid)
DNA: CTCCCCCCCCTTCCCCTTCCCGAGTAGGAGATTGGCATGTATGCTCTACATGCCCGATTCTCTCTTGCTCACTCTCTTAAATCCTGGTGGCGGTCTCGGATTAAACATTTATGTCGTATCTGGGATCGTCTTACTTGGTGGTAATTCCTCTGTTGCCTAGGGACCTCCGGACTGCCGGATTAAAGGTCTCAACAGAGGGCAATGTACAAGGAAGTCATTATACGCTAATTAAGTATTTGATGAATGACTAGTGTGACAGGGCTGAGGAACTCCCCCCGGGTAACCGGTGCCTCAGCGTCCGAAAGACACGTGGATAGGATCCACCCTGTTATACCCAGCACGATGTAATAGTCAAATACCTCTGATTTGTGTAGGATGTATAAATTGTGCATTGTAAATTTTGGGCGTAGAGATGCTCCGAAGGTACCCCGTTTTACGGGATCTGATCGGAGGCTAATTACCCAATGCGCCCTAAATAACTTCATATAATTTCTTTTTCTTTATTCAAA
B8: SAFV V13C (nucleic acid)
DNA: TTTTCGACGTGGTTGGAATTGCCATCATTTCCGACGAAAGTGCTATCATGCCTCCCCGATTATGTGATGTTTTCTGCCCTGCTGGGCGGAGCATTCTCGGGTTGAGAAACCTTGAATCTTTTTCTTTGGAACCTTGGTTCCCCCGGTCTAAGCCGCTTGGAATATGACAGGGTTATTTTCTTGATCTTATTTCTACTTTTGCGGGTTCTATCCGTAAAAAGGGTACGTGCTGCCCCTTCCTTCTCTGGAGAATTCACACGGCGGTCTTTCCGTCTCTCAACAAGTGTGAATGCAGCATGCCGGAAACGGTGAAGAAAACAGTTTTCTGTGGAAATTTAGAGTGCACATCGAAACAGCTGTAGCGACCTCACAGTAGCAGCGGACTCCCCTCTTGGCGACAAGAGCCTCTGCGGCCAAAAGCCCCGTGGATAAGATCCACTGCTGTGAGCGGTGCAACCCCAGCACCCTGGTTCGATGATCATTCTCTATGGAACCAGAAAATGGTTTTCTCAAGCCCTCCGGTAGAGAAGCCAAGAATGTCCTGAAGGTACCCCGCGTGCGGGATCTGATCAGGAGACCAATTGGCGGTGCTTTACACTGTCACTTTGGTTTAAAAATTGTCACAGCTTCTCCAAACCAAGTGGTCTTGGTTTTCCAATTTTGTTGAATGGCAAT
B9: Hunnivirus A1 (nucleic acid, listed as Hunnivirus sp.)
DNA: TAACGTTTGGCAAGAACCCTCACCTGTCAATTGGGACCACCACTTTCAGTGACCCCATGCGAAGTAGTGAGAGAGAATAAGCTTTCTTACCCTTCATTTGTGAACCCTTCAGTCGAAGCCGCTTGGAATAAGATAGGAGGAAAAGTTCATTCTAAATGGAGTGAAACATGTACTTCAGAATTTCTAGCACGCGCTGGGCTTTCTTGCGTGTGACGGCACTGTCTTGCCGGAGCTCTCCACACTGACACCCCACGCTTGTGGACCTTGGTGGCAGATGACAACACTGCAGCTGGAATTGAGTGTCTGGTACACTCTGTGTAACAGTGAAAACAATGTGATCACTTCGGTGAGCTAGTAGCCTGTGGACCAACAACTGGTAACAGTTGCCTCAGGGGCCAAAAGCCACGGTGTTTACAGCACCCTACTGGTTTGATTGGAGCAATCCAAGATGTCACAGAGTTAGTAATTGCCAAGCAGTCCGTACTGGTATCTTGACATACCGTGCAGTTTTGGATAGTGAAGGATGCCCTGACGGTACCCATAGGTAACAAGTGACACTATGGATCTAAGCAGGGGCTCACTCTACGCTGCTTTACAGCTGGCTGTGAGTTAAAAAACGTCTAGCTATCCACAACCTAGGGGACTAGGTTTTCCTTTTATTTAGATTACAATTAT
B10: ABPV (nucleic acid)
DNA: CCCGTCAAAATAACAACTTATAACACGATGTTACCCGAAGAAACCATTTTAGTGTAACATTTAAGATTAGAAGTAGTTCATCTAATAGAGATAGGCACTATTAGAAGGAGGCCTTTTCTAAAGGAGCCGTTAGTCAGCCCAGACAAGCGCAGTACTTTAGAAGAGAGAAGTTCCCCGATAGCGACCGAAAAGACGCGTTTTCCGTGCTAACTAATTTAAATGTGGGAACGAATATTATTATTGAAATTATGTGAGCCACGTAGCAATCAAGTCATGTTTTTGTCACTACGTTTACTCATCTAATGTAGATAATTTTGTTTAAGTACCTATTTAGGTGTCATCCCACCAGAGAAGAAATAATACGTACCGGAACCCAGAGTACACCCCTTATTTTAAGCCTTACTGGGCTTCTCTGTTAGTTAGTAATCTGGCCCACGTTTTGCGTTGAGTGGGGTCCCAACAGTAGGAATTCGACGGACAAGTAGCAAGCGAGTCGGTACCAATTGGTTTAGCCTTCGAAATTACTCTGGGCAGGAAGTTACTAAACGAGAACTTTCTGCTTAAATCCCAACGCACAAACAAATAGAGTAAATAAATAATTATA
modifications: Acute bee paralysis virus

Tested on: HEK293 cells
Format: cell-based, human
Conditions: luminescence from secreted Gluc in supernatant 24 hours after transfection of HEK293 cells; circular RNA encoding Gluc with the named IRES (UTR truncated to 675 nt)

Molecule	Expression
B1	1.23E+06
B2	3.34E+06
B3	3.44E+06
B4	6.38E+06
B5	1.35E+06
B6	3.98E+06
B7	1.09E+07
B8	9.32E+07
B9	1.61E+06
B10	6.48E+05
